Experimental data reported in US20170174740A1.

B1: Kv2.1 (wild-type voltage-dependent delayed-rectifier K+ channel, expressed in CHO cells) (protein)
chain: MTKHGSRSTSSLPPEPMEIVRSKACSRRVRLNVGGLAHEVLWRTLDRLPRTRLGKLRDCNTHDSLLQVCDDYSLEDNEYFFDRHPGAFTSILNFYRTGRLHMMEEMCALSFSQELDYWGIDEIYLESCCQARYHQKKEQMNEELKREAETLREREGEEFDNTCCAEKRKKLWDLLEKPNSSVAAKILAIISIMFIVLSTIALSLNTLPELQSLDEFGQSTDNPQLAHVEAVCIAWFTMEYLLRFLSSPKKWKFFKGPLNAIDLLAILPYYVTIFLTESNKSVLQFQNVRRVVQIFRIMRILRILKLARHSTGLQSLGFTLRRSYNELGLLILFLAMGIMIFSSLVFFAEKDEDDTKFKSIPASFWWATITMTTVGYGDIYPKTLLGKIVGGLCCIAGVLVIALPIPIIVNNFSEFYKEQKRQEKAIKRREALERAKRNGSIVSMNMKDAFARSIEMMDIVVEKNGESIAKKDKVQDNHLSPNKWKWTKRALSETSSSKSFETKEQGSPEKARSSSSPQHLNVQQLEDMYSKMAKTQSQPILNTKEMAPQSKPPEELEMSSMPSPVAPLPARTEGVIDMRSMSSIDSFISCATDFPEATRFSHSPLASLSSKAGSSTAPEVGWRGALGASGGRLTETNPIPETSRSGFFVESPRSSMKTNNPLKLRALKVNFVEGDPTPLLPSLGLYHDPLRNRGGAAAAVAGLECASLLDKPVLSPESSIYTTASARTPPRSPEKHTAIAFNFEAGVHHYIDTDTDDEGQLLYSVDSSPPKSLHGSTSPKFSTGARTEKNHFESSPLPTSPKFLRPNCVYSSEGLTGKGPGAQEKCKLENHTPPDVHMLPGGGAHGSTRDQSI

Experiments:
[1] = target: syntaxin (SNARE protein; expressed from a plasmid in CHO cells for co-immunoprecipitation); assay: co-immunoprecipitation with anti-syntaxin from CHO cells expressing syntaxin and Kv2.1, no C1a segment; mean±SEM, n=3
[2] = target: syntaxin (SNARE protein; expressed from a plasmid in CHO cells for co-immunoprecipitation); assay: co-immunoprecipitation with anti-syntaxin from CHO cells expressing syntaxin and Kv2.1 with C1a441-472 co-expressed as competitor; the ratio is Kv2.1 pulled down with syntaxin; mean±SEM, n=3

Chain of syntaxin (SNARE protein; expressed from a plasmid in CHO cells for co-immunoprecipitation) (Q16623 whole entry): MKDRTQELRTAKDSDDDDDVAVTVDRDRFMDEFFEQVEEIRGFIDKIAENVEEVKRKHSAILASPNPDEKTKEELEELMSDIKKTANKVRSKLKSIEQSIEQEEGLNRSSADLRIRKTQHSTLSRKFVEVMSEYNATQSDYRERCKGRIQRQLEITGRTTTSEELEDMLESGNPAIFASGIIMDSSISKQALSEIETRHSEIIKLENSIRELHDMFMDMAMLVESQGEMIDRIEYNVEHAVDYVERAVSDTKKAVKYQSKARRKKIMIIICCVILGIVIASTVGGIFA

Binder | ratio of Kv2.1 to syntaxin immunoblots [1] | ratio of Kv2.1 to syntaxin immunoblots [2]
B1 | 0.24 | 
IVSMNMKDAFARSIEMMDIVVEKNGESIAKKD [C1a441-472 (overlapping middle segment of C1a)] |  | 0.25
